Test [1] deals with T1, receptor-interacting serine/threonine-protein kinase 3 (RIPK3), murine (mouse, UniProt Q9QZL0 1-486).
T1 construct: Endogenous protein of MEFs, pulled down with anti-RIPK3 antibody; also called RIP3
Description: RIPK3 immunoprecipitated from PR8-infected wild-type MEFs, immunoblot for DAI (FIG. 13A); also seen with re-expressed wild type DAI (FIG. 13D). On the procedure:
FIGS. 13A through 13F show DAI is required for IAV induced formation of RIPK3-containing necrosome complex. […] In parallel, wild-type (WT), zbp1^{-/-}, and ripk3^{-/-} MEFs were treated with […] and phosphorylated MLKL. […] In parallel, reconstituted cells were treated with TCZ and examined for expression of phosphorylated p MLKL. […] Whole-cell extract (5% input) was examined in parallel for RIPK3, DAI and IAV NS1 proteins.
On the technique in general: In western blotting, separated proteins are transferred to a membrane and probed.

For test [2], the target named is T1, receptor-interacting …. Description: anti-RIPK3 immunoprecipitation from PR8-infected reconstituted zbp1-/- MEFs, immunoblot (FIG. 13D).

Changes are numbered by the printed parent chain.

T1 sequence (Q9QZL0 whole entry): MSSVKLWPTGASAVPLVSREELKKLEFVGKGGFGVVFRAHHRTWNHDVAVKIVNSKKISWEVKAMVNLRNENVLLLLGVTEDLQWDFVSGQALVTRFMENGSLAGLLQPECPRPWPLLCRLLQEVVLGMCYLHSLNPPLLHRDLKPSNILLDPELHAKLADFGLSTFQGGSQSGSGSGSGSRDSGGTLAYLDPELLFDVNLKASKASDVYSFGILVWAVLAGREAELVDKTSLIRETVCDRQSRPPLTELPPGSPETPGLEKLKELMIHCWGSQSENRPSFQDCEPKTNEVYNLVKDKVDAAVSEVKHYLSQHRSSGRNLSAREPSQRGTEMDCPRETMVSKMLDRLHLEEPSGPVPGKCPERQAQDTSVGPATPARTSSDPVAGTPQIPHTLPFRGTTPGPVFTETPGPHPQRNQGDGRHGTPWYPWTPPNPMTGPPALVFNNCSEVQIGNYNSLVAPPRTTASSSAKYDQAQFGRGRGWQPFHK

B1: DNA-dependent activator of interferon-regulatory factors (DAI), wild-type full-length murine (other, mouse, UniProt Q9QY24 1-411, looked up)
chain: MAEAPVDLSTGDNLEQKILQVLSDDGGPVKIGQLVKKCQVPKKTLNQVLYRLKKEDRVSSPEPATWSIGGAASGDGAPAIPENSSAQPSLDERILRFLEANGPHRALHIAKALGMTTAKEVNPLLYSMRNKHLLSYDGQTWKIYHSRQEGQDIAHSGVTQESPAIICQHNPVNMICQQGANSHISIANSNAIQIGHGNVIVREKACGEPGPRTSHPLPLAWDASAQDMPPVAHGAQYIYMDKSLLQQVQLGHHNEMSLVGDAGKHPSYSFSDSPPEVSTTTADPGASFNMQTFEPGPHPEGDTVQTVHIKSCFLEDATIGNGNKMTIHLRSKGEVMESGDSEEPKKEDTGTSSEATPPRSCQHTPSDSMLPTSELRAMALGDSSPQTTEPVLREHEVQDIESSQDTGLSKQ
notes: also called ZBP1; DLM-1
For B1, the binding result in test [1] was “binds”.

B2: murine DAI with mutant RHIM domain (amino acids 192-195 IQIG to AAAA) (other, mouse, UniProt Q9QY24 1-411, looked up)
chain: B1 chain with I192A, Q193A, I194A, G195A
notes: also called DAI mutRHIM
In the case of B2, the binding result in test [2] was “no binding”.
